Measurements from US20170218081A1 (OHIO STATE INNOVATION FOUNDATION, published 2017).
Blank lines part the entries; values can stand above or below the binder they belong to.

Columns and labels:
[1] = biological target: T1, Bovine submaxillary mucin (bovine); test: SPR
T1 construct: Glycoprotein used as the TAG-72-positive antigen in dot blots and SPR; also called BSM; TAG-72 positive mucin

[2] = biological target: T1, Bovine submaxillary mucin; test: SPR on immobilised BSM
[3] = biological target: T1, Bovine submaxillary mucin; test: SPR, BSM immobilised on CM5 chip
Protocol: To further confirm the binding data, surface plasmon resonance on 3E8.IgG, CC49.scFv, and 3E8.scFv (FIG. 7c) was determined. […] Next the affinity of the scFv of CC49 was measured. CC49.scFv binds in the mid-nanomolar range with a dissociation constant of 30±8 nM. Finally, SPR was conducted on 3E8.scFv and found it to bind 2-fold better than CC49.scFv and only 4-fold weaker than the bivalent IgG. At 16±4 nM, 3E8.scFv binds better than clinically tested CC49.IgG and scFv variants of CC49, and has more desirable biophysical properties than full-length antibodies.
The binding parameters were evaluated using surface plasmon resonance (SPR). BSM was immobilized on a CM5 dextran sensor chip using the GE Pharmacia amine coupling kit (BR-1000-50). Scouting conditions were 200 μg mL⁻¹ BSM in 100 mM sodium acetate, pH 4 for channel 2, and 10 μg mL⁻¹ BSA in 100 mM sodium acetate, pH 4 for channel 1. The immobilization protocol continued until 700 RU were obtained. Binding was measured as 2-1. Antibody and fragments were dialyzed into 10 mM HEPES, 150 mM NaCl, 3.4 μM EDTA, 0.005% surfactant P20 (GE Healthcare) and were assayed from 0-400 nM. Samples were bound for 120 seconds at 10 μL min⁻¹ and dissociation was measured for 180 seconds. The CM5 chip was regenerated between trials with 6 M guanidine and 200 mM acetic acid with no loss in activity. The average binding parameters were evaluated using the BIAevaluation software.

bovine serum albumin [4] = biological target: T2, bovine serum albumin (bovine, UniProt P02769 25-607); test: fluorescence dot blot on nitrocellulose
T2 construct: also called BSA
T2 sequence (P02769 25-607 limits assumed): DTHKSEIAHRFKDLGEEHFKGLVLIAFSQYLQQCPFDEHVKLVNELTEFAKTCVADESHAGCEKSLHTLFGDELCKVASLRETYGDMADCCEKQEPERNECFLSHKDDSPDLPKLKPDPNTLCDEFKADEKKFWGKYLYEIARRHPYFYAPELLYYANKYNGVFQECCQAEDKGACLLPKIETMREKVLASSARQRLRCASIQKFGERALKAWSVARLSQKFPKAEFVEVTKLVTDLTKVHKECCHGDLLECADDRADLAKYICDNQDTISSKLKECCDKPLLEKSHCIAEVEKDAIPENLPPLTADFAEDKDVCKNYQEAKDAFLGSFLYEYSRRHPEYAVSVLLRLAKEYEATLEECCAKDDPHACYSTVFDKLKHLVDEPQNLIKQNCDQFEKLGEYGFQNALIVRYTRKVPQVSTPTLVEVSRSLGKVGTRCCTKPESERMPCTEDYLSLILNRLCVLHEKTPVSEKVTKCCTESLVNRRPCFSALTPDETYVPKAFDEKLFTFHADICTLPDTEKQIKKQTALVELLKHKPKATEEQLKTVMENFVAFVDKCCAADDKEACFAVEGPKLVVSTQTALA
Protocol: Bovine submaxillary mucin is positive for the TAG-72 epitope, sialyl-Tn. To qualitatively assay binding, BSM was spotted on a nitrocellulose membrane and then blocked with bovine serum albumin (BSA). The antibodies and fragments were labeled nonspecifically at lysines with the NHS-ester of fluorescein, and then were added to the dot blots. After gentle washing the samples were imaged using a Typhoon phosphorimager.
Qualitative binding to sialyl-Tn was assayed by dot-blotting. First, 2 μL of 5 mg mL⁻¹ bovine submaxillary mucin (M3895-Sigma) was spotted on a nitrocellulose membrane. The membrane was allowed to dry overnight before blocking with 5 mg mL⁻¹ BSA. After overnight incubation, excess BSA was removed by washing before addition of fluorescein-labeled scFvs. The scFvs were incubated for 3 hours at room temperature before washing. Fluorescence was observed using a Typhoon phosphorimager with 488 nm excitation.

[5] = biological target: T1, Bovine submaxillary mucin; test: estimate from the competition dot blot on BSM
Protocol: (§1) A similar dot blot experiment was performed using constant concentrations of BSM and fluorescein-labeled 3E8 IgG. The assays were performed with increasing concentrations of unlabeled 3E8.scFv. […] Two negative controls were performed in parallel. […] By 4 μM scFv about half of the IgG is displaced and by […] the dot blot resembles the negative control. This analysis estimates that 3E8.scFv binds approximately 16-fold weaker than 3E8.IgG and both bind the same epitope. The slight loss in affinity is expected since the native IgG is bivalent versus the monovalent scFv.
(§2) The epitope binding of the 3E8.scFv was assayed for its ability to inhibit 3E8.IgG binding. Here, 0.25 μM labeled 3E8.IgG competed with increasing concentrations of nonlabeled 3E8.scFv (0 to 8 μM). The loss of fluorescence was observed using the Typhoon phosphorimager with 488 nm excitation.

[6] = biological target: T1, Bovine submaxillary mucin; test: estimate from the competition dot blot against labeled 3E8.IgG
[7] = biological target: T1, Bovine submaxillary mucin; test: competition dot blot; unlabeled scFv against 0.25 µM fluorescein-labeled 3E8 IgG on BSM
Protocol: as §1, §2

bovine serum albumin [8] = biological target: T2, bovine serum albumin; test: negative control of the competition dot blot, fluorescein-labeled IgG, no BSM
Protocol: as §1, §2

- Kd [1]: 16.4 nM
- Kd [2]: 12 nM
- Kd [3]: 16 nM
- fold weaker binding than 3E8 IgG [3]: 4 fold
- binding result (bovine serum albumin [4]): no binding
- fold weaker binding than 3E8.IgG [5]: ~16 fold
- Kd [6]: ~10.4 nM
- IC50 [7]: ~4000 nM
B1: 3E8.scFv (scFv)
scFv: GSSGDIVMTQSPDSLAVSLGERATINCKSSQSVLYSSNNKNYLAWYQQKPGQPPKLLIYWASTRESGVPDRFSGSGSGTDFTLTISSLQAEDVAVYYCQQYYSYPLTFGGGTKVEIKLSADDAKKDAAKKDDAKKDDAKKDLQVQLVQSGAEVKKPGASVKVSCKASGYTFTDHAIHWVRQAPGQRLEWMGYFSPGNDDFKYSQKFQGRVTITADKSASTAYMELSSLRSEDTAVYYCARSWIMQYWGQGTLVTVSS
notes: Labelled at lysines with fluorescein for the fluorescence dot blots and with biotin for the HRP dot blot and IHC; also called the scFv of 3E8; 3E8 scFv single chain
- fold tighter binding than CC49.scFv [3]: 2 fold

- Kd [3]: 4 nM
- binding result (bovine serum albumin [8]): no binding (tested: 0.25 µM)
B2: 3E8 IgG (antibody, V domains shown)
VH: QVQLVQSGAEVKKPGASVKVSCKASGYTFTDHAIHWVRQAPGQRLEWMGYFSPGNDDFKYSQKFQGRVTITADKSASTAYMELSSLRSEDTAVYYCARSWIMQYWGQGTLVTVSS
VL: not shown
notes: Full-length humanized monoclonal IgG, gift from Enlyton, Ltd; Fluorescein-labelled at lysines in the dot blots; also called the bivalent IgG; full-length 3E8 IgG
